Experimental data: US20190008977A1 (ASCENDIS PHARMA GROWTH DISORDERS A S, published 2019)
Bridge positions count the residues as written; N and C are the ends. Side chains are listed from the residue outwards. Ends that are not written are not given here. * marks the point of attachment. Hexanoyl(6-maleimido) = O=C1C=CC(=O)N1CCCCCC(=O)*; reversible prodrug linker = not defined here

T1: NPR-B expressed endogenously on NIH-3T3 cells (Murine Embryo Fibroblast cell line) (mouse (endogenous in the murine NIH-3T3 …, UniProt Q6VVW5 17-1047))
T1 sequence (looked up): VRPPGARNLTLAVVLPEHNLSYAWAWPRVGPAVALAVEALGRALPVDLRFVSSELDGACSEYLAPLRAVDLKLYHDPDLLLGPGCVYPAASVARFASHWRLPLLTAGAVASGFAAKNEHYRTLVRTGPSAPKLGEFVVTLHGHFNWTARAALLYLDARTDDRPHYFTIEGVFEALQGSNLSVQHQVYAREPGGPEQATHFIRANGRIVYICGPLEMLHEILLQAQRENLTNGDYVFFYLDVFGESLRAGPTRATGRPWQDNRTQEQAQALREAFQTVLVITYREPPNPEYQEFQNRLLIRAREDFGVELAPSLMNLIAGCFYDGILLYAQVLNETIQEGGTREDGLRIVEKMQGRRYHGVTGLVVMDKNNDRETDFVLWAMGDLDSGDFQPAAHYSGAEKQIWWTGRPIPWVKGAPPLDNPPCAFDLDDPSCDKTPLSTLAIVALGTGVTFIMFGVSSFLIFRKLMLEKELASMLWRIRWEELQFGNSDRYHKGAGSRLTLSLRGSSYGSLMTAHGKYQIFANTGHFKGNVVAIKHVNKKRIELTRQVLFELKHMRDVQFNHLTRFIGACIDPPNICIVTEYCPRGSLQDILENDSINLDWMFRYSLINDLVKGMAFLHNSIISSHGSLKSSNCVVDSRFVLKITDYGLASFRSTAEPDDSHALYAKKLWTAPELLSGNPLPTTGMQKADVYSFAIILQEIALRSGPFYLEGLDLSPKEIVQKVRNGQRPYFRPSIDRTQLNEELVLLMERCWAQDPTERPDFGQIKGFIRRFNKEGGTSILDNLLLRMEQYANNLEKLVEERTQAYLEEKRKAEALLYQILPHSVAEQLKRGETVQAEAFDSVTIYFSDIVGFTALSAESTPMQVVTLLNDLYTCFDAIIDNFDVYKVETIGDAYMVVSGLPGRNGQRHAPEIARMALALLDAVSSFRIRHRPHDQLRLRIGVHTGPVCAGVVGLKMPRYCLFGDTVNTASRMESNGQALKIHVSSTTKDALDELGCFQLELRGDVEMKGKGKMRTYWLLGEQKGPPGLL

T2: permanent N-terminal CNP-38 PEG 5 kDa conjugate 15e
T2 chain: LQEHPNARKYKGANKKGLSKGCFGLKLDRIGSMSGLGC

T3: permanent Lys26 CNP-38 PEG4x10 kDa conjugate 12g
T3 chain: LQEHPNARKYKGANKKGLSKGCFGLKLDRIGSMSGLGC

T4: permanent N-terminal CNP-34 PEG 5 kDa conjugate 14e
T4 chain: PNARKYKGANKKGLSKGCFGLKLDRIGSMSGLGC


Columns and labels:
[1] = molecular target: T1, NPR-B expressed endogenously on NIH-3T3 …; test: cell-based or functional assay
[2] = molecular target: T1, NPR-B expressed endogenously on NIH-3T3 …; test: cell-based or functional assay; remark: listed apart in the source
[3] = molecular target: T2, permanent N-terminal CNP-38 PEG 5 kDa …
[4] = molecular target: T3, permanent Lys26 CNP-38 PEG4x10 kDa …
[5] = molecular target: T4, permanent N-terminal CNP-34 PEG 5 kDa …

Binder	EC50 compound/EC50 CNP-38 (cGMP stimulation in NIH-3T3 cells, residual NPR-B activity) [1] [ratio]	other results
LQEHPNARKYKGANKKGLSKGCFGLK([reversible prodrug linker-branched PEG 4x10 kDa])LDRIGSMSGLGC (disulfide 22-38; reading uncertain) [reversible Lys26 CNP-38 PEG4x10 kDa conjugate 11i]	> 100	–
LQEHPNARKYKGANKKGLSKGCFGLKLDRIGSMSGLGC (5 kDa PEG stably attached through a maleimidohexanoyl group at the side chain of Lys26 (ring lysine); disulfide Cys22-Cys38) [permanent Lys26 CNP-38 PEG 5 kDa conjugate 19e]	> 100	–
LQEHPNARKYKGANKKGLSKGCFGLKLDRIGSMSGLGC (disulfide 22-38) [Released CNP-38 (isolated by RP-HPLC after 7 d incubation of 11i under physiological conditions)]	–	EC50 compound/EC50 CNP-38 (cGMP stimulation in NIH-3T3 cells) [2]: 1 ratio
{PEG 5 kDa-Hexanoyl(6-maleimido)}-LQEHPNARKYKGANKKGLSKGCFGLKLDRIGSMSGLGC (disulfide 22-38) [permanent N-terminal CNP-38 PEG 5 kDa conjugate 15e]	> 5	–
LQEHPNARKYKGANKKGLSKGCFGLK(branched PEG 4x10 kDa)LDRIGSMSGLGC (disulfide 22-38) [permanent Lys26 CNP-38 PEG4x10 kDa conjugate 12g]	> 100	–
LQEHPNARKYKGANKKGLSKGCFGLK([reversible prodrug linker-branched PEG 2x20 kDa])LDRIGSMSGLGC (disulfide 22-38; reading uncertain) [reversible Lys26 CNP-38 PEG2x20 kDa conjugate 10f]	> 100	–
recombinant human Neutral Endopeptidase (NEP) (protein) YDDGICKSSDCIKSAARLIQNMDATTEPCTDFFKYACGGWLKRNVIPETSSRYGNFDILRDELEVVLKDVLQEPKTEDIVAVQKAKALYRSCINESAIDSRGGEPLLKLLPDIYGWPVATENWEQKYGASWTAEKAIAQLNSKYGKKVLINLFVGTDDKNSVNHVIHIDQPRLGLPSRDYYECTGIYKEACTAYVDFMISVARLIRQEERLPIDENQLALEMNKVMELEKEIANATAKPEDRNDPMLLYNKMTLAQIQNNFSLEINGKPFSWLNFTNEIMSTVNISITNEEDVVVYAPEYLTKLKPILTKYSARDLQNLMSWRFIMDLVSSLSRTYKESRNAFRKALYGTTSETATWRRCANYVNGNMENAVGRLYVEAAFAGESKHVVEDLIAQIREVFIQTLDDLTWMDAETKKRAEEKALAIKERIGYPDDIVSNDNKLNNEYLELNYKEDEYFENIIQNLKFSQSKQLKKLREKVDKDEWISGAAVVNAFYSSGRNQIVFPAGILQPPFFSAQQSNSLNYGGIGMVIGHEITHGFDDNGRNFNKDGDLVDWWTQQSASNFKEQSQCMVYQYGNFSWDLAGGQHLNGINTLGENIADNGGLGQAYRAYQNYIKKNGEEKLLPGLDLNHKQLFFLNFAQVWCGTYRPEYAVNSIKTDVHSPGNFRIIGTLQNSAEFSEAFHCRKNSYMNPEKKCRVW	–	half life norm. [h] (in vitro NEP cleavage assay) [3]: Almost no proteolysis after 4 days.; half life norm. [h] (in vitro NEP cleavage assay) [4]: Almost no proteolysis after 4 days.; half life norm. [h] (in vitro NEP cleavage assay) [5]: Almost no proteolysis after 4 days.
